Data on 83 variants can be found in the RNAGym collection of RNA variant scans (doi:10.1073/pnas.2313332121).

Fewer inactive variants are shown than the library holds.

B1: TPR 5TU (parent)
chain: GGAUCUUCUCGAUCUAACAAAAAAGACAAAUCUGCCACAAAGCUUGAGAGCAUCUUCGGAUGCAGAGGCGGCAGCCUUCGGUGGCGCGAUAGCGCCAACGUUCUCAACUAUGACACGCAAAACGCGUGCUCCGUUGAAUGGAGUUUAUCAUG

In this data set the parent is B1. In words: polymerase ribozyme fitness, log enrichment relative to wild type (log ratio); higher = more active; in vitro selection for triplet polymerase activity. The essentials: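 Mutant libraries were PCR-built and transcribed for each subunit of a heterodimeric triplet polymerase ribozyme and selected for one round in triplicate at −7 °C, frozen, before gel excision of extended constructs and streptavidin-bead capture. Input and output libraries were Illumina-sequenced, keeping genotypes with ≥10 input reads and ≥1 read per output. Fitness is a logarithmic ratio of genotype to wild-type enrichment, in base 2, using inverse-variance-weighted replicate averages.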
As for C18U C54U C93G A119C, the “polymerase ribozyme fitness (log ratio)” value is at most -4.2.
The result for A19U A20U C85U reads -2.59.
The result for C18U A41C C72U C93G U104G reads at most -4.2.
For the variant A19U A26U G46A C87A A91U G94A U127C G143C, the “polymerase ribozyme fitness (log ratio)” value is at most -4.2.
Take A19C C57U G86A: the “polymerase ribozyme fitness (log ratio)” value is -0.316.
For the variant C18U G65A, the “polymerase ribozyme fitness (log ratio)” value is -1.77.
For A19U G46U A89C, the “polymerase ribozyme fitness (log ratio)” value was -2.83.
On to A19U A40C G81C C96G, for which the “polymerase ribozyme fitness (log ratio)” value was -1.25.
To A19C A37U G70U U144C belongs at most -4.2.
Turning to A19C U53A G58A, the “polymerase ribozyme fitness (log ratio)” value worked out at 0.679.
The result for C18U U53A C95U C99G reads -3.76.
Turning to C18U C85G U145A, the “polymerase ribozyme fitness (log ratio)” value was -1.19.
For C18U A40U G143C, the “polymerase ribozyme fitness (log ratio)” value was -2.98.
Consider A19U C85G A121G, for which the “polymerase ribozyme fitness (log ratio)” value is -1.62.
As for A19G C54G, the “polymerase ribozyme fitness (log ratio)” value is -1.84.
The result for A19C C85U reads -0.536; that for A19U C57G C95U C103G U104G, at most -4.2; that for A19G C93A G140A, at most -4.2.
A19U C38U A49C G58C C79U G88A A97C: the “polymerase ribozyme fitness (log ratio)” value is at most -4.2.
To A19G C87G belongs at most -4.2; to A19C C51U A142C, -0.768; to C18U U90G, at most -4.2.
Consider C18U U61G A91C C93G C96U C99U A147U, for which the “polymerase ribozyme fitness (log ratio)” value was at most -4.2.
The result for A19U C51G G59C C75G G88A A91U C96U G141C reads at most -4.2.
The result for A19U C57G reads -1.75; that for C18U U55A, -1.49; that for A19C U56C C96U G133C, -2.22.
The result for A19C G58C C95U G140U reads -3.88; that for A19C G70C C103G, at most -4.2.
C18U A41G C85A U134A: the “polymerase ribozyme fitness (log ratio)” value was -3.02.
The result for A19G U55A reads -0.576.
With A19U C69G C96G U104G, the “polymerase ribozyme fitness (log ratio)” value was -1.98.
With A19U G50A G71A A89G A137G, the “polymerase ribozyme fitness (log ratio)” value is at most -4.2.
For A19U A28C A40C A41C U44G C85A A113C, the “polymerase ribozyme fitness (log ratio)” value is at most -4.2.
Consider A19C U45A G67A, for which the “polymerase ribozyme fitness (log ratio)” value was at most -4.2.
Turning to A19C G65C C69G C85U C87G U102G A121G G124A U139G, the “polymerase ribozyme fitness (log ratio)” value is at most -4.2.
In the case of A19G A41U A66C C93U C99U A115U G140A G141C, the “polymerase ribozyme fitness (log ratio)” value is at most -4.2.
For the variant C18U G42A A73U C95U A98U C103G, the “polymerase ribozyme fitness (log ratio)” value is at most -4.2.
Take A19U C85G G92U C123U: the “polymerase ribozyme fitness (log ratio)” value was -2.54.
Regarding C18U U55A C93A G128A G136A, the “polymerase ribozyme fitness (log ratio)” value was at most -4.2.
In the case of A19C C35U C95U, the “polymerase ribozyme fitness (log ratio)” value amounted to 0.438.
To A19U A29U A39G U44G C85U G143U belongs at most -4.2.
The result for A19C A21C C35U G59U C75U reads -1.16; that for C18U G140C, -4.17.
Turning to A19G A37U U101G, the “polymerase ribozyme fitness (log ratio)” value was -2.14.
As for A19U C131A, the “polymerase ribozyme fitness (log ratio)” value was -1.75.
Turning to A19C A20C A40G U55C G71U G84A A138U U139A, the “polymerase ribozyme fitness (log ratio)” value is at most -4.2.
To A19C A60C U102G U109G U151G belongs at most -4.2.
To A19U G48C C75U U77C C93G A122U A150C belongs at most -4.2.
The result for A19G C32A A40C U61A C93G A110G reads at most -4.2.
As to A19U A49C A52G A106G, the “polymerase ribozyme fitness (log ratio)” value was at most -4.2.
Take A19G U109G C118G U144A: the “polymerase ribozyme fitness (log ratio)” value is -3.72.
To A19C U56A belongs 0.406; to A19G A30G C38U C85G A89U U130G, at most -4.2.
To A19U A52C belongs -1.34; to A19G U109G U139C U144C U148C, -4.14; to A19U A20U C85U A142G, -2.89.
To C18U U53A C54U U56A G70A C85U C116U G141C belongs at most -4.2; to C18U U56A G83A U102A U144A, -3.72.
For the variant A19G A40U C57A U61A G100U G136U G141C, the “polymerase ribozyme fitness (log ratio)” value is at most -4.2.
Consider C18U A47G A52U G68U C79A C93U C99A G141C A142G G143U, for which the “polymerase ribozyme fitness (log ratio)” value is at most -4.2.
The result for A19G G67C G124U reads at most -4.2; that for C18U A60G C76U C103G G112U, at most -4.2; that for C18U U33A A39U A52C C72U G94A C95U C132U, at most -4.2.
Take A19C C54A C96U A122G G133C: the “polymerase ribozyme fitness (log ratio)” value was -2.39.
The result for A19U A21C reads -0.908; that for A19G A29U C95U A122G, at most -4.2; that for A19U A73G G86U, -1.03.
To A19C A29U A39U A60U C76U C95U U144A belongs at most -4.2; to C18U G94A, -1.37; to A19U C27U C36A G42C G86A G100C C118G, at most -4.2.
The result for C18U G83A reads -0.637; that for C18U G83C, -1.3; that for A19C A20U C85U G136A, -0.21.
As to A19C U53A G92A, the “polymerase ribozyme fitness (log ratio)” value is -3.8.
To A19C A40U G46A belongs -0.204; to A19U A21U C85G, -2.46.
As for A19U C69G C85U U134G G152U, the “polymerase ribozyme fitness (log ratio)” value was at most -4.2.
To C18U A97G C131G belongs -3.22; to C18U C87G, at most -4.2.
To A19U A28U G67C U82A C87A A122C U127C U145C belongs at most -4.2; to A19G G94A, -1.06; to A19C A23G A24G U31A C35A A40U G48A C79A G140A, at most -4.2.
